The target in the assay is T1, lysozyme from chicken egg white (Gallus gallus, UniProt P00698).
T1 construct: lysozyme from chicken egg white (Sigma-Aldrich L4919); source: bought: Sigma-Aldrich (L4919)
The experiment in a line: BLI; BLItz system; nanobody (100 mg/L) loaded via His-tag on Anti-Penta-HIS (HIS1K) sensor; dilution series of antigen in solution; association 180 s, dissociation 300 s; sensor hydrated in PBS-T (0.1% Tween-20); reference without antigen; global fitting. The note with it: both partners purified. (In general: In BLI a coated tip is dipped into the sample, and binding shifts an interference pattern.)

T1 sequence (P00698 19-147): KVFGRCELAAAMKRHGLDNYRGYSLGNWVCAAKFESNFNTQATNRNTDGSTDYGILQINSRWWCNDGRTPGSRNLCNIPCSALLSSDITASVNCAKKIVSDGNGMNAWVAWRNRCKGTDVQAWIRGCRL

B1: monovalent antilysozyme nanobody 1ZVH (VHH)
VHH: DVQLVESGGGSVQAGGSLRLSCAASGYIASINYLGWFRQAPGKEREGVAAVSPAGGTPYYADSVKGRFTVSLDNAENTVYLQMNSLKPEDTALYYCAAARQGWYIPLNSYGYNYWGQGTQVTVSS
notes: anti-lysozyme camelid VHH; also called anti-lysozyme VHH; not shown: CBH2 secretory signal, CBD-carrier polypeptide and KEX2 linker (RDKR), N-terminal, cleaved; His6, C-terminal, kept
As to B1, the dissociation constant Kd amounted to 1.5 nM.

Usually Kd stands for the equilibrium constant for the complex coming apart. Read a low Kd as a tighter complex.

For the origin of these results see PMC10197057 (Microbial Cell Factories, 2023).
